Measurements taken from a protein production outcome set (Wang et al. 2014).

Experiment: label from the status in PepcDB records

Sequence	protein production
MAEIKHYQFNVVMTCSGCSGAVNKVLTKLEPDVSKIDISLEKQLVDVYTTLPYDFILEKIKKTGKEVRSGKQLAREVILAVHGMTCSACTNTINTQLRALKGVTKCDISLVTNECQVTYDNEVTADSIKEIIEDCGFDCEILRDS	not failed
MAEIQFSKGVAETVVPEVRLSKSKNGQSGMAKFYFLEPTILAKESTDDITGMYLIDDEGEIITREVKGKFINGRPTAIEATVILNSQPEWDRFMRFMERYGAENGLGFSKSELEHHHHHH	not failed
MAEKISVKTADTNADEIDLGRLLGTLLDNRWLIIGVTAIFLIFGILYATLATPIYKADALVQVEKNSSNKLINDITSMLPDAKPESAAEVELITSRMIIGKTVNDLALDINVQQNYFPFFGKGIARLTGATKGVLAVSRLEVPDSWKDEPIILTVTDNKNYSISAGDAVRFEGQVGRLERHDGMTLLISDIAADEGTTFSIKKLNQLTAINNILKTLTVADRGKDTGVLALSLEGEDPILTNKILNSISENYLQQNVERKSEESGRSLEFLKEQLPNVRSILDEADNKLNIFRQKNESVDLSLEAKSVLETMVALEAQLNELTFKEAEISKLYTKEHPAYRALLEKRKTLEEEKEKINKRVGAMPKTQQEIIRLTRDVKAGQEVYMQLLNKQQELSINKASTVGNVRIIDSAVVQLRPVKPEKVFIVLLSIILGGLLSVSFVLIRTILHKGIESPEQLAELGISVYASVPLSAWQQKKDRALLGKGKRGNTRSTELLAVGNPADLAIEAIRSLRTSLHFAMMEAKNNVLMISGASPAIGKTFVSANLGAVIAQSGQRVLIVDCDMRKGYAHELMGCQGTDGLSDILSGQITTDKSIRKTAVENMDFIPRGQIPPNPSELLMHSRFSQFIDWATKNYDIVLLDTPPILAVTDAAVISRHAGTSLLVARFEVNTLKEIEVSIRRFEQNGTEIKGVILNAIVKRAASYYSYGNYDYYSYEYKSDK	failed
MAEKKWFDKVLSKWQYEPIQVFMRHLQSAEMDLSAIAVAYYLILTAFPLIVIAANIFPYLNIDIADLLRLMKQNLPKDIFRPASAIVENIFSKPSGSVLGVATLTGLWTMSRSLTSLQKAINKAYGASQHRDFFIGHLVGLLTSLIILFLLAFALIFSIFSKAAIQVLDKHYHLSDNITTIFLLLIQPITVLIIFVGLMLLYFLLPNVKIKKIRYILPGTLFTSFVMTFLSNLVGNYVVYNVERMVDIKMFGSVMIFIIMLWFIFLARILILGAIFNATYQEMSLGKLEGRSGDMIAILKKTLGNDSDLSPSQSIEDSHTD	failed
MAELAANDIDSALRWLERAIDHDPEYSSAYAALGDIYQRTNDPVEADYCLRMALRCSPDSSEILHKLARNCVTLGNRSEALALLREAKDRHSGSVDFLSQLALIYDDLDETDLAICTWEEVIALNPLDASAHNNLGLQWHYGKGDVDKALDCFMRALQLNPCLTEARFNLYQAKADAGKVDEALAGFESMLAEPFREEVMFHRSIMLLKNRRFGEGWREYHLRWRYRGTQSRSFPFPNWDGQPCTGKTLLVYGEQGLGDEIMFASCLRDLHEKTGAKIVLECNTRLESLFRRSFPGITVIGRSSAQTSADGLASGATIDFQTAIGDLPGMFRAEEAAFPNHRGYLVADPKRVTFWKDRLAALGEGPKIGISWRGGQGKTRREARSIPLQEWHPILAAEGRHFVSLQYTDCRQELQALEEQHGIVIHHWQEAIDDYDETAALVMALDKVITVCTSIVHLTGALGRPAWVLVPRVPEWRYLASGETMPWYPSVRLFRQPRAGDWAPVLRDIAWKLGTVARRVDHDLG	failed
MAELEAVADDLDALIDDLDYLPGHFHLEMQLNFEPRSPAPQRARDLKLQREGLRQELQLAAAPQRPAVRHLLGAFAFYLEELDEARECFLEVAHEHPGNLNAWANLAHVYGRLGQEEEEEACAARLADLMGLAEEPEAAGDPQLRAARCLAEQGYAHGFDVGCASPEERARGLAAGIALYDKALGYGQQIPMEEKRGWYFTMATLYIRLDGIFLELGSEEQKRLPAFNRTLALLRQVLKSEDPRHRALAWCYLGMLLERKDTFSTTPMGVHDCGYSGTDPLDCFGKAIEIAKNQPPILNRLAKIFYFLGKQDMAIGTCNMALDVLRDPELNWQAYCTRAKIHIRAYLHDLKRAKMGLGGMPDRNHLACAKADLEEVVRVCPGFKAYLDIGQVYYYMGVDAVQELLAVDEAALNQALVFLAKAGESELGATLPELQLLRGKCLRIKGEDANAAACFKRAVELDDAGSSHTDGFGCLLEALLAQWSQAQLSDGELGREVDAWLRRAQDKYPAARLRQELQRVWRGHTDEVLGLARALVAQGRPALVRLLFETMEREGEGASAPRDRRAVSF	failed
